doi:10.1101/559005

Tests used:
[1] = biological target: ScSth1p Ser1276Glu mutant bromodomain (S. cerevisiae) (UniProt P32597); assay: ITC
[2] = biological target: ScSth1p bromodomain (residues 1250-1359), wild type (S. cerevisiae) (UniProt P32597); assay: ITC

H3K14ac peptide
Kd [1]: 3 µM
Kd [2]: 18 µM

H4K20ac peptide
Kd [1]: 31 µM
Kd [2]: 48 µM

HsH2AK15ac peptide
Kd [2]: 44 µM
